B1: RF2a-3Δ: RF2a mutant, glutamine-rich, proline-rich and acidic domains removed, SEQ ID NO:72 (protein)
chain: MSSSAAAHGARPKHQHSLSMDESMSIKAEELVGASPGTEGMSSAEAKKAVSAVKLAELALVDPKRAKRIWANRQSAARSKERKMRYIAELERKVQTLQTEATTLSAQLALLQRDTSGLTTENSELKLRLQTMEQQVHLQDALNDTLKSEVQRLKVATGQMANGGGMMMNFGGMPHQ
modifications: This sequence was artificially derived and/or created by the inventors.
B2: RF2a-ΔPΔQ: RF2a mutant, proline- and glutamine-rich domains removed, SEQ ID NO:71 (protein)
chain: MGHRRAHSEILSLPEDLDLCAAGGGDGPSLSDENDEELFSMFLDVEKLNSTCGASSEAEAESSSAAAHGARPKHQHSLSMDESMSIKAEELVGASPGTEGMSSAEAKKAVSAVKLAELALVDPKRAKRIWANRQSAARSKERKMRYIAELERKVQTLQTEATTLSAQLALLQRDTSGLTTENSELKLRLQTMEQQVHLQDALNDTLKSEVQRLKVATGQMANGGGMMMNFGGMPHQ
modifications: This sequence was artificially derived and/or created by the inventors.
B3: RF2a-ΔPΔA: RF2a mutant, proline-rich and acidic domains removed, SEQ ID NO:70 (protein)
chain: MSSSAAAHGARPKHQHSLSMDESMSIKAEELVGASPGTEGMSSAEAKKAVSAVKLAELALVDPKRAKRIWANRQSAARSKERKMRYIAELERKVQTLQTEATTLSAQLALLQRDTSGLTTENSELKLRLQTMEQQVHLQDALNDTLKSEVQRLKVATGQMANGGGMMMNFGGMPHQFGGNQQMFQNNQAMQSMLAAHQLQQLQLHPQAQQQQVLHPQHQQQQPLHPLQAQQLQQAARDLKMKSPMGGQSQWGDGKSGSSGN
modifications: This sequence was artificially derived and/or created by the inventors.

Key:
Box IIm1 element = experiment: Electrophoretic mobility shift assay; type: binding; details: 100 ng purified protein, 32P-labeled Box IIm1 DNA probe
Description: The purified mutant proteins were then analyzed by SDS-PAGE to confirm that each protein was its expected size (FIG. 16(B)). To confirm that each of the mutant proteins bind to the DNA target, i.e., the Box II element and/or its operational derivatives, gel mobility shift assays were carried out with the purified recombinant proteins (FIG. 16(C)). The electrophoretic mobility shift assays were carried out essentially as described in Yin and Beachy (1995). 100 ng of proteins purified from the transformed E. coli were incubated with ^32P-labeled Box IIm1 DNA probe followed by electrophoresis in a 5% acrylamide gel (Yin et al., 1997) (FIG. 16(C)).

pBII-48Ca::GUS = experiment: Transactivation of pBII-48Ca::GUS by RF2a and RF2a mutants in BY-2 protoplasts; type: cell-based, tobacco; details: co-transfected with pBII-48Ca::GUS, 24 hours after electroporation, normalized with GFP
Description: The relative activity of RF2a and the RF2a mutants (described in Example 8) was then measured. First, a chimeric promoter was developed with a single copy of the Box II element fused to the 5′ end of a minimal CaMV 35S promoter comprising nucleotides −48 to +8 (SEQ ID NO:66). The chimeric promoter was ligated to the uidA coding sequence to create the reporter pBII-48Ca::GUS.
To analyze the function of the several domains of RF2a, effectors were created by inserting coding sequences of RF2a or the mutants of RF2a (described in Example 8) downstream of the enhanced CaMV 35S promoter in the pMON999 vector (a gift from Monsanto Company, St. Louis, Mo.). The resultant constructs, p35S::RF2a, p35S::RF2a-ΔP, p35S::RF2a-ΔQ, p35S::RF2a-ΔPΔA, p35S::RF2a-ΔPΔQ and p35S::RF2a-3Δ, were co-transfected into BY-2 protoplasts with pBII-48Ca::GUS (FIG. 17(A)). Plasmid pCat-GFP, in which the GFP gene was driven by CaMV 35S promoter, was co-introduced to serve as an internal control. The following describes, in greater detail, the construction of these vectors and the methods employed in transfecting the same into BY-2 protoplasts.
Plasmids for protoplast transfection—The coding sequences for mutants of RF2a were released from pET28a-derived plasmids and cloned into the plant expression vector pMON999 (a gift from Monsanto Company, St. Louis, Mo.) to place each gene downstream of an enhanced CaMV 35S promoter, followed by a nopaline synthase terminator sequence. The resulting effector constructs were named p35S::RF2a, p35S::RF2a-ΔP, p35S::RF2a-ΔQ, p35S::RF2a-ΔPΔA, p35S::RF2a-ΔPΔQ and p35S::RF2a-3Δ. The reporter gene construct, pBII-48Ca::GUS, was built using PCR to introduce the Box II element into a minimal CaMV 35S promoter comprising nucleotides −48 to +8 with primers BII-48Ca 5′ (SEQ ID NO:53) (which contained the Box II element) and GUS 3′ (SEQ ID NO:36) using a p35S:GUS plasmid as template. The PCR product was restricted with HindIII and NcoI, and the resulting fragment was inserted into p35S::GUS to replace the original 35S promoter.
Transfection of tobacco BY-2 protoplasts—The protoplasts were isolated from tobacco cell line BY-2 as described by Watanabe et al. (1987). Approximately one million protoplasts were transfected by electroporation with 20 μg of effector construct DNA, 15 μg of herring sperm DNA, 2.5 μg of reporter gene construct DNA, and 15 μg of pCat-GFP DNA. In samples with reporter gene alone, the total amount of DNA was adjusted by adding 20 μg of herring sperm carrier DNA. The electroporation parameters used were 300 V and 250 microfarads with the Bio-Rad electroporation system (Bio-Rad Laboratories, Hercules, Calif.). Protoplast samples were cultured in Murashige and Skoog medium with 0.4 M mannitol, pH 5.8, at 28° C. The protoplasts were collected 24 hours after electroporation.

[1] = system: Nicotiana tabacum cv. Xanthi NN; experiment: Phenotype of transgenic tobacco plants overexpressing RF2a or RF2a mutants; type: in vivo; details: for phenotype of transgenic tobacco plants: CaMV 35S promoter driven, T1 generation, greenhouse; for cross-sections of the stem of transgenic plants: two-month old tobacco, toluidine blue O
Source text: (Yin et al., 1997; Petruccelli et al., 2001). […] Fifteen or more independent transgenic tobacco lines were developed with the constructs described below through Agrobacterium-mediated transformation.
Plasmids for Agrobacterium-mediated transformation—The fusion genes described above relating to the plant expression constructs comprising RF2a deletion mutants were released from pMON999-derived plasmids using NotI (blunted) and cloned into the binary vector pGA-E::GUS (Petruccelli et al., 2001) using the blunt HindIII site (downstream of a CaMV 35S promoter sequence). The final plasmids were named pGA-E::GUS/P-35S::ΔP, pGA-E::GUS/P-35S::ΔQ, pGA-E::GUS/P-35S::ΔPΔA and pGA-E::GUS/P-35S::ΔPΔQ. A plasmid encoding full-length RF2a, p35S::RF2a, was also constructed using the methods described herein.
Tobacco transformation—the plasmids described above were introduced into Agrobacterium tumefaciens strain LBA4404 and used for tobacco transformation. Leaf discs from Nicotiana tabacum cv. Xanthi NN were transformed with the various plasmids following the protocol of Horsch et al. (1988). At least 15 independent transgenic lines were produced with each gene construct. Transgenic plants were self-fertilized, and T1 seeds were collected. The T1 seeds were germinated on Murashige and Skoog medium (Murashige and Skoog, 1962) with kanamycin (100 mg/L) selection, and Kan^r seedlings were grown in a greenhouse for observation.
The phenotype caused by 35S::RF2a-ΔPΔA was similar to, but less severe than, the phenotype caused by 35S::RF2a-3Δ. […] (FIG. 19(C)).

Molecule | binding in gel mobility shift assay (Box IIm1 element) | activation function (relative GUS activity) (pBII-48Ca::GUS) | phenotype of transgenic tobacco plants [1] | cross-sections of the stem of transgenic plants [1] | phenotype of transgenic tobacco plants ([1]; listed as 35S::RF2a-ΔPΔA) | independent transgenic lines with stunting, curved leaves and delayed flowering ([1]; T1 generation tobacco) | internodal elongation of transgenic plants ([1]; transgenic tobacco)
B1 | bind to the Box IIm1 element | dropped to near basal level | severe stunting phenotype | xylem of stunted plants was not uniformly lignified and that phloem development was altered |  |  | 
B2 | bind to the Box IIm1 element | greater than that of full-length RF2a | did not exhibit abnormal phenotypes |  |  |  | 
B3 | bind to the Box IIm1 element | dropped to near basal level | severe stunting phenotype | xylem of stunted plants was not uniformly lignified and that phloem development was altered | mild to severe stunting with curved leaves and substantial delay in flowering times | 11 of 15 | strongly repressed
